The source of these data is article PMC8233224, “Crystal structure of a homotrimeric verrucomicrobial exo-β-1,4-mannosidase active in the hindgut of the wood-feeding termite Reticulitermes flavipes” (Journal of Structural Biology: X, 2021).

“And” between values parts separate entries of the source, which are not always exact repeats. Identical values can stand only once.

For data set [1], the target named is exo-β-1,4-mannosidase from Opitutaceae bacterium strain TAV5 (Op5Man5) (Opitutaceae bacterium strain TAV5). The experiment in a line: cryo-EM structure; single particle cryo-EM at pH 7.5 of pooled SEC fractions with the trimeric species, 0.12 mg/ml; 3.7 Å map.
Data set [2] shares this target. Nature of the data set: SEC; Superdex 200 10/300 GL, 20 mM buffer with 300 mM NaCl, pH 5.5-6.5 (sodium acetate pH 5.5; MES pH 6.0 and 6.5), 4 °C, standard curve of reference proteins. For orientation: Size exclusion chromatography separates by hydrodynamic size, large species first.
Data set [3] shares this target. The experiment in a line: crystal structure; crystals from 0.1 M phosphorus citrate pH 4.2, 30% ethanol, 5% PEG 1000; space group P212121; 2.2 Å.
Data set [4] has the same target. The experiment in a line: SEC; Superdex 200 10/300 GL, 20 mM Tris-HCl pH 8.0 and 8.5 with 300 mM NaCl, 4 °C, standard curve of reference proteins.
The target is the same in data set [5]. The experiment in a line: cross-linking; glutaraldehyde 0.4% w/v, protein 0.2 mg/ml, 37 °C, 0 to 60 min, SDS-PAGE (15%).
Data set [6] has the same target. The experiment in a line: SEC; Superdex 200 10/300 GL, 20 mM HEPES pH 7.5 with 300 mM NaCl, 4 °C, standard curve of reference proteins.
The test system of data set [7] is T1, O=[N+]([O-])c1ccc(O[C@@H]2O[C@H](CO)[C@@H](O)[C@H](O)[C@@H]2O)cc1.
T1 construct: full length, 594 residues, no secretion signal; C-terminal non-cleavable His6 tag (pNIC-CH2), E. coli BL21(DE3) T1R; synthetic gene; ESI-MS 66824 g/mol; homotrimer ~200 kDa; N-terminus MTIDSSGY from primer
The experiment in a line: purified protein. The following applies: 50 mM sodium phosphate pH 6.0, 40 °C, 10 min, apparent. The data set is classed as biochemical, Opitutaceae bacterium.

Take “exo-β-1,4-mannosidase from Opitutaceae bacterium strain TAV5 (Op5Man5) (enzyme)”: the stoichiometry N (in general, the number of molecules, sites or subunits per partner or assembly) was 3 in data set [1]; 3 in data set [2]; 3 in data set [3]; 3 in data set [4]; 3 and 6 in data set [5]; 3 and 6 in data set [6].

Regarding Op5Man5 (Opitutaceae bacterium), in data set [7], the Km (as a rule, the substrate concentration at which the rate is half of its maximum) came to 1000 ± 130 µM; the kcat (in general, the maximal rate divided by the concentration of active sites) stood at 239 ± 7.7 s⁻¹; the kcat/Km – broadly, the second-order rate constant that governs catalysis at low substrate concentration – came out at 239000 ± 7700 M⁻¹ s⁻¹.
